Our source for the Ki values is US20200024322A1 (Eli Lilly, published 2020).

Residue numbers refer to the chain shown, from its start.

The labels stand for the following.
T1: human GIP receptor (human, UniProt P48546 22-466)
T1 construct: whole, on cells; also called hGIPR; hGIP-R
T1 sequence (looked up): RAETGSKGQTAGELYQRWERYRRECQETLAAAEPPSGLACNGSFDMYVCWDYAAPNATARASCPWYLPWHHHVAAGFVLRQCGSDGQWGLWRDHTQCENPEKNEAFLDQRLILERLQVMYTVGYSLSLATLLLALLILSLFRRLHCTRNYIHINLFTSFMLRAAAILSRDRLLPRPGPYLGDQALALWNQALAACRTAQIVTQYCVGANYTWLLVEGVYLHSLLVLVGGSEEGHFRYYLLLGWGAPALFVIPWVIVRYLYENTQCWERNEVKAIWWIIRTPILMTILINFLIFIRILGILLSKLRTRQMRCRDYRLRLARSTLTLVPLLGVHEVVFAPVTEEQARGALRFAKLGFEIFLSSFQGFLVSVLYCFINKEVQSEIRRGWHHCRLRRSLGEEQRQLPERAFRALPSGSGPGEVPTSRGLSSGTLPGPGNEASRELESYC

B1: Example 254 (peptide)
peptide: YXEGTFTSDYSILLDKKAQQAFIEYLIEGGPSSGAPPPS
modifications: Aib2; K17((2-[2-(2-Amino-ethoxy)-ethoxy]-acetyl)2-(γ-Glu)-CO-(CH2)18-CO2H); C-terminal NH2
B2: Example 255 (peptide)
peptide: B1 peptide with Q20H
modifications: Aib2; K17((2-[2-(2-Amino-ethoxy)-ethoxy]-acetyl)2-(γ-Glu)-CO-(CH2)18-CO2H); C-terminal NH2
B3: Example 265 (peptide)
peptide: YXEGTXTSDXSIXLDXKAQXEFIXXLIEGG
modifications: Aib2; αMeF(2F)6; 4Pal10; αMeL13; Orn16; K17((2-[2-(2-Amino-ethoxy)-ethoxy]-acetyl)2-(γ-Glu)-CO-(CH2)16-CO2H); Aib20; D-Glu24; αMeY25; C-terminal NH2
B4: Example 227 (peptide)
peptide: YXEGTXTSDYSIXLDEKAQXEFIXYLIEGGPSSGAPPPS
modifications: Aib2; αMeF6; αMeL13; K17((2-[2-(2-Amino-ethoxy)-ethoxy]-acetyl)2-(γ-Glu)-CO-(CH2)18-CO2H); Aib20; D-Glu24; C-terminal NH2
B5: Example 238 (peptide)
peptide: B4 peptide with Y10L, E16X, Y25X
modifications: Aib2; αMeF(2F)6; αMeL13; Orn16; K17((2-[2-(2-Amino-ethoxy)-ethoxy]-acetyl)2-(γ-Glu)-CO-(CH2)16-CO2H); Aib20; D-Glu24; αMeY25; C-terminal NH2
B6: Example 251 (peptide)
peptide: B4 peptide with Y10X, E16X, E21A, Y25X
modifications: Aib2; αMeF(2F)6; 4Pal10; αMeL13; Orn16; K17((2-[2-(2-Amino-ethoxy)-ethoxy]-acetyl)2-(εK)-CO-(CH2)18-CO2H); Aib20; D-Glu24; αMeY25; C-terminal NH2
B7: Example 250 (peptide)
peptide: B4 peptide with E16X
modifications: Aib2; αMeF(2F)6; Aib13; Orn16; K17((2-[2-(2-Amino-ethoxy)-ethoxy]-acetyl)2-(γ-Glu)-CO-(CH2)18-CO2H); Aib20; D-Glu24; C-terminal NH2
B8: Example 240 (peptide)
peptide: B4 peptide with Y10X, E16X, E21A, Y25X
modifications: Aib2; αMeF(2F)6; 4Pal10; αMeL13; Orn16; K17((2-[2-(2-Amino-ethoxy)-ethoxy]-acetyl)2-(γ-Glu)-CO-(CH2)16-CO2H); Aib20; D-Glu24; αMeY25; C-terminal NH2
B9: Example 241 (peptide)
peptide: B4 peptide with Y10V, E16X, E21T, Y25X
modifications: Aib2; αMeF(2F)6; αMeL13; Orn16; K17((2-[2-(2-Amino-ethoxy)-ethoxy]-acetyl)2-(γ-Glu)-CO-(CH2)16-CO2H); Aib20; D-Glu24; αMeY25; C-terminal NH2
B10: Example 242 (peptide)
peptide: B4 peptide with Y10V, E16X, E21A, Y25X
modifications: Aib2; αMeF(2F)6; αMeL13; Orn16; K17((2-[2-(2-Amino-ethoxy)-ethoxy]-acetyl)2-(γ-Glu)-CO-(CH2)16-CO2H); Aib20; D-Glu24; αMeY25; C-terminal NH2
B11: Example 244 (peptide)
peptide: B4 peptide with Y10L, E16X, E21A, Y25X
modifications: Aib2; αMeF(2F)6; αMeL13; Orn16; K17((2-[2-(2-Amino-ethoxy)-ethoxy]-acetyl)2-(γ-Glu)-CO-(CH2)16-CO2H); Aib20; D-Glu24; αMeY25; C-terminal NH2
B12: Example 236 (peptide)
peptide: B4 peptide with E16X, Y25X
modifications: Aib2; αMeF(2F)6; αMeL13; Orn16; K17((2-[2-(2-Amino-ethoxy)-ethoxy]-acetyl)2-(γ-Glu)-CO-(CH2)16-CO2H); Aib20; D-Glu24; αMeY25; C-terminal NH2
B13: Example 239 (peptide)
peptide: B4 peptide with Y10X, E16X, E21T, Y25X
modifications: Aib2; αMeF(2F)6; 4Pal10; αMeL13; Orn16; K17((2-[2-(2-Amino-ethoxy)-ethoxy]-acetyl)2-(γ-Glu)-CO-(CH2)16-CO2H); Aib20; D-Glu24; αMeY25; C-terminal NH2
B14: Example 252 (peptide)
peptide: YXEGTXTSDXSIXLDXKAQXAFIXXLIAGGPSSGAPPPS
modifications: Aib2; αMeF(2F)6; 4Pal10; αMeL13; Orn16; K17((2-[2-(2-Amino-ethoxy)-ethoxy]-acetyl)2-(εK)-CO-(CH2)18-CO2H); Aib20; D-Glu24; αMeY25; C-terminal NH2
B15: Example 243 (peptide)
peptide: B14 peptide with X10L, A21T, A28E
modifications: Aib2; αMeF(2F)6; αMeL13; Orn16; K17((2-[2-(2-Amino-ethoxy)-ethoxy]-acetyl)2-(γ-Glu)-CO-(CH2)16-CO2H); Aib20; D-Glu24; αMeY25; C-terminal NH2
B16: Example 264 (peptide)
peptide: YXEGTXTSDXSIXLDXKAQXEFIXXLIEGGPSSG
modifications: Aib2; αMeF(2F)6; 4Pal10; αMeL13; Orn16; K17((2-[2-(2-Amino-ethoxy)-ethoxy]-acetyl)2-(γ-Glu)-CO-(CH2)16-CO2H); Aib20; D-Glu24; αMeY25; C-terminal NH2

T3 sequence (P47871 26-477): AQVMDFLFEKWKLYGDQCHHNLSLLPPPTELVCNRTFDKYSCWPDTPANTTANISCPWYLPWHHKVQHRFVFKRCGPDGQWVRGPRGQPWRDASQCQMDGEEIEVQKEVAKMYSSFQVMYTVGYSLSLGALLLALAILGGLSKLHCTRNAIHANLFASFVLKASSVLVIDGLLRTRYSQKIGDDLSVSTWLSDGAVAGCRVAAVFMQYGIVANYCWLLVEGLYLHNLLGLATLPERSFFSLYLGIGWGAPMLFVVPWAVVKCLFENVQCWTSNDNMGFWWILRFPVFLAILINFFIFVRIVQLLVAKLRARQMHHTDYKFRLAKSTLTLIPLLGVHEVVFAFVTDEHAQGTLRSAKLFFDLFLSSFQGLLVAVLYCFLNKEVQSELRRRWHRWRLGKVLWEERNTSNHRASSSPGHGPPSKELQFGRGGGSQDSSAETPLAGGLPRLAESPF

In one assay the target is T1, human GIP receptor. As to the kind of experiment: [125I]-GIP competition SPA, hGIPR membranes.
As a reminder, the Ki is a dissociation constant, usually derived from enzyme kinetics or from competition with a known ligand. Read a low Ki as higher affinity. B1 yielded a Ki of 108 pM.

Molecule B2 registered a Ki of 77.2 pM.

For B3, affinity was put at a Ki of 22.4 pM.

On to B4, for which the Ki was determined as 14.6 pM.

As for B5, the affinity corresponds to a Ki of 40.3 pM.

In turn, B6 yielded a Ki of 24.9 pM.

In the case of B7, the Ki came to 17.1 pM.

In turn, B8 returned a Ki of 28.4 pM.

In the case of B9, the Ki turned out to be 42 pM.

For the molecule B10, the Ki stood at 60.4 pM.

B11 showed a Ki of 30.8 pM.

In the case of B12, affinity was put at a Ki of 42.5 pM.

Regarding B13, the affinity corresponds to a Ki of 101 pM.

For B14, the Ki worked out at 9.71 pM.

The molecule B15 registered a Ki of 32.5 pM.

The molecule B16 gave a Ki of 15 pM.

The target in a further assay is T2, human GLP-1 receptor (human, UniProt P43220 24-463).
T2 construct: whole, on cells; also called hGLP-1R; hGLP1R
Kind of assay: [125I]-GLP-1 competition SPA, hGLP-1R membranes. The gist of the method: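 Kᵢ values are geometric means (SEM) over replicates run on separate days, derived from IC₅₀ of four-parameter curve fits. Buffer: HEPES 25 mM pH 7.4 with CaCl₂ 2.5 mM, MgCl₂ 1 mM, bacitracin 0.1%, TWEEN-20 0.003%, EDTA-free protease inhibitors.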
Molecule B1 registered an inhibitory constant (Ki) of 2580 pM.

Molecule B2 registered a Ki of 2580 pM.

The molecule B3 yielded a Ki of 537 pM.

As to B4, the Ki turned out to be 2010 pM.

On to B5, for which the Ki came out at 548 pM.

As for B6, the Ki came out at 1090 pM.

With B7, the Ki amounted to 1720 pM.

Turning to B8, the affinity corresponds to a Ki of 552 pM.

Molecule B9 returned a Ki of 799 pM.

As for B10, the affinity, expressed as Ki, was 853 pM.

Turning to B11, the Ki stood at 820 pM.

Regarding B12, the Ki was found to be 1050 pM.

B13: affinity was put at a Ki of 2710 pM.

Turning to B14, the affinity, expressed as Ki, was 383 pM.

Molecule B15 yielded a Ki of 670 pM.

B16 showed a Ki of 412 pM.

Another assay addresses T3, human glucagon receptor (human, UniProt P47871 26-477).
T3 construct: whole, on cells; also called hGcgR; GcgR
Kind of assay: [125I]-Gcg competition SPA, hGcgR membranes.
Regarding B1, the Ki was 148000 pM.

Molecule B2 gave a Ki of 257000 pM.

Turning to B3, the Ki was 567000 pM.

As to B4, the Ki was 113000 pM.

With B5, the affinity corresponds to a Ki of 230000 pM.

On to B6, for which the affinity corresponds to a Ki of 21200 pM.

Turning to B7, affinity was put at a Ki of 198000 pM.

B8 yielded a Ki of 204000 pM.

For the molecule B9, the Ki was 167000 pM.

Take B10: the Ki stood at 95900 pM.

In the case of B11, affinity was put at a Ki of 87800 pM.

In turn, B12 displayed a Ki of 200000 pM.

With B13, the Ki is 596000 pM.

B14 came in with a Ki of 26000 pM.

Molecule B15 displayed a Ki of 145000 pM.

B16 displayed a Ki of 388000 pM.
